The values below come from US20210162000A1 (INSTITUT DE CARDIOLOGIE DE MONTREAL, published 2021).

In assay [1] the target is T1, Recombinant PCSK9-His6 of the Circulex in vitro competitive binding assay (human, UniProt Q8NBP7 31-692, limits assumed).
T1 construct: also called WT PCSK9; wild-type human recombinant His-tagged PCSK9; not shown: His tag
In words: solid phase PCSK9-LDLR EGF-AB in vitro competitive binding assay (Circulex CY-8150), 100 ng (13.46 nM) PCSK9-His6 with increasing SEQ ID NO. 6. The protocol:
Solid phase PCSK9-LDLR epidermal growth factor precursor homology domain A and B (LDLR EGF-AB) in vitro competitive binding assay (Circulex; Cat. #CY-8150) was performed with 100 ng (13.46 nM) of recombinant PCSK9-His6 together with increasing amount of recombinant SEQ ID NO. 6 according to manufacturer's recommendations. Using this in vitro competitive assay, SEQ ID NO.

The target of assay [2] is T2, Full-length human V5-tagged PCSK9 (human, UniProt Q8NBP7 31-692, limits assumed).
T2 construct: Expressed from pIRES2-EGFP in transfected cells. proPCSK9 and mature forms were both seen in the IPs; also called PCSK9-V5; wild-type PCSK9-V5
T2 sequence (Q8NBP7 31-692 limits assumed): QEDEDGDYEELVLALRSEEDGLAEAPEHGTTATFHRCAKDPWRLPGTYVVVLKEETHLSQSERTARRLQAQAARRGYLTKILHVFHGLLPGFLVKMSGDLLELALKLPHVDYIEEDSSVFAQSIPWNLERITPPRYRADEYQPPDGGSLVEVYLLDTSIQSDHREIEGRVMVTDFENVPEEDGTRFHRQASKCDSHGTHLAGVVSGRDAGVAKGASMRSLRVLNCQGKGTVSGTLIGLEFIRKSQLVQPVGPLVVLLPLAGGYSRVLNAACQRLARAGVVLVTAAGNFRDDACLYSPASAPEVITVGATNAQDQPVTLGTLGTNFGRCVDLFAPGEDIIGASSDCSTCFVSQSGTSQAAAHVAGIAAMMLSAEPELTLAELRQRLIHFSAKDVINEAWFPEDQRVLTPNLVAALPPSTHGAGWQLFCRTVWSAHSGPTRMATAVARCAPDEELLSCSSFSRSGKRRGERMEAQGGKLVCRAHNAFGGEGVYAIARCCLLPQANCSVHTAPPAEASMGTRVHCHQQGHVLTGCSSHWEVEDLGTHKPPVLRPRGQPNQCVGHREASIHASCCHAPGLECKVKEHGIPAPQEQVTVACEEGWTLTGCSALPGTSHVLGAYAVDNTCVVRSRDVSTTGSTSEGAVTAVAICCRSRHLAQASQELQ
Description: co-IP from transfected HEK293 cells, immunoblot. The method, then: All other Co-IP experiments were performed as described without the cross-linking step and in SDS-deprived RIPA buffer. HA-tagged proteins and GRP94 were immunoprecipitated with mouse anti-HA-tag (1:500; Cat. #H3663, Sigma-Aldrich) or rat anti-Grp94 (9G10, 1:1000; Cat. #ADI-SPA-850, Enzo Life Sciences).
We next decided to map GRP94 domain(s) important for PCSK9 protein-protein interaction. The overall domain structure of GRP94 includes a signal polypeptide (amino acids; aa1-21) followed by a N-terminal enzymatic ATP-binding domain (aa22-651), client-binding domain (CBD; aa652-678), C-terminal dimerization domain (aa679-799) and a KDEL polypeptide sequence (aa800-803) allowing retention of GRP94 in the endoplasmic reticulum. (Dollins et al., 2007; Maki et al., 1990; Wu et al., 2012) Thus, we first generated cDNA constructs encoding secretable HA-tagged forms of human GRP94 lacking its C-terminal KDEL polypeptide (SEQ ID. NO. 66; FIG. 2). HEK293 cells were transfected without or with SEQ ID. NO. 66 in absence or presence of PCSK9-V5 (FIG. 2a). […] NO. 66 is well expressed (Input; IB: HA) and secreted into media and that SEQ ID. NO. 66 interacts in complex with PCSK9 following immunoprecipitation (IP: V5; FIG. 2b). […] It was reported that a 27 aa C-terminal hydrophobic loop structure within GRP94 client-binding domain (CBD, amino acids aa652-678; ⁶⁵²[…], SEQ ID. NO. 4) was important for folding and interaction with Toll-like receptors and integrins. (Wu et al., 2012) Deletion or alanine-scan mutations in SEQ ID. NO. […] (Wu et al., 2012) Similarly, we generated two mutated constructs in which critical residues within the GRP94-CBD domain where mutated into alanine (AA1: ⁶⁵²[…], SEQ ID. NO. 78 and AA2: ⁶⁵²[…], SEQ ID. NO. 79). HEK293 cells were transfected with either an empty vector (−) or with SEQ ID. NO. 66, 64 or 65 constructs in presence or absence of PCSK9-V5 (FIG. 2b).

T1 sequence (Q8NBP7 31-692 limits assumed): as above

B1: Recombinant SEQ ID NO 6, GRP94 CBD-CT (aa 652-799), His6 tag purified from E. coli (other)
chain: YGWSGNMERIMKAQAYQTGKDISTNYYASQKKTFEINPRHPLIRDMLRRIKEDEDDKTVLDLAVVLFETATLRSGYLLPDTKAYGDRIERMLRLSLNIDPDAKVEEEPEEEPEETAEDTTEDTEQDEDEEMDVGTDEEEETAKESTAE
notes: also called NO; 43; GRP94 CDB-CT domain; not shown: His6 tag from pET24b(+)
For the molecule B1, the half-maximal inhibitory concentration (IC50) in assay [1] is about 113 nM.

B2: SEQ ID NO 64, alanine-scanning mutant of GRP94 lacking KDEL (taken as AA1) (other)
chain: DDEVDVDGTVEEDLGKSREGSRTDDEVVQREEEAIQLDGLNASQIRELREKSEKFAFQAEVNRMMKLIINSLYKNKEIFLRELISNASDALDKIRLISLTDENALSGNEELTVKIKCDKEKNLLHVTDTGVGMTREELVKNLGTIAKSGTSEFLNKMTEAQEDGQSTSELIGQFGVGFYSAFLVADKVIVTSKHNNDTQHIWESDSNEFSVIADPRGNTLGRGTTITLVLKEEASDYLELDTIKNLVKKYSQFINFPIYVWSSKTETVEEPMEEEEAAKEEKEESDDEAAVEEEEEEKKPKTKKVEKTVWDWELMNDIKPIWQRPSKEVEEDEYKAFYKSFSKESDDPMAYIHFTAEGEVTFKSILFVPTSAPRGLFDEYGSKKSDYIKLYVRRVFITDDFHDMMPKYLNFVKGVVDSDDLPLNVSRETLQQHKLLKVIRKKLVRKTLDMIKKIADDKYNDTFWKEFGTNIKLGVIEDHSNRTRLAKLLRFQSSHHPTDITSLDQYVERMKEKQDKIYFMAGSSRKEAESSPFVERLLKKGYEVIYLTEPVDEYCIQALPEFDGKRFQNVAKEGVKFDESEKTKESREAVEKEFEPLLNWMKDKALKDKIEKAVVSQRLTESPCALVASQYAASAAAAAIMKAQAYQTGKDISTNYYASQKKTFEINPRHPLIRDMLRRIKEDEDDKTVLDLAVVLFETATLRSGYLLPDTKAYGDRIERMLRLSLNIDPDAKVEEEPEEEPEETAEDTTEDTEQDEDEEMDVGTDEEEETAKESTAEYPYDVPDYA
With B2, in assay [2], the binding result was “no binding”.

B3: SEQ ID NO 65, alanine-scanning mutant of GRP94 lacking KDEL (taken as AA2) (other)
chain: DDEVDVDGTVEEDLGKSREGSRTDDEVVQREEEAIQLDGLNASQIRELREKSEKFAFQAEVNRMMKLIINSLYKNKEIFLRELISNASDALDKIRLISLTDENALSGNEELTVKIKCDKEKNLLHVTDTGVGMTREELVKNLGTIAKSGTSEFLNKMTEAQEDGQSTSELIGQFGVGFYSAFLVADKVIVTSKHNNDTQHIWESDSNEFSVIADPRGNTLGRGTTITLVLKEEASDYLELDTIKNLVKKYSQFINFPIYVWSSKTETVEEPMEEEEAAKEEKEESDDEAAVEEEEEEKKPKTKKVEKTVWDWELMNDIKPIWQRPSKEVEEDEYKAFYKSFSKESDDPMAYIHFTAEGEVTFKSILFVPTSAPRGLFDEYGSKKSDYIKLYVRRVFITDDFHDMMPKYLNFVKGVVDSDDLPLNVSRETLQQHKLLKVIRKKLVRKTLDMIKKIADDKYNDTFWKEFGTNIKLGVIEDHSNRTRLAKLLRFQSSHHPTDITSLDQYVERMKEKQDKIYFMAGSSRKEAESSPFVERLLKKGYEVIYLTEPVDEYCIQALPEFDGKRFQNVAKEGVKFDESEKTKESREAVEKEFEPLLNWMKDKALKDKIEKAVVSQRLTESPCALVASQYGWSGNMERIMKAQAYATGKAISTNAAASQKKTFEINPRHPLIRDMLRRIKEDEDDKTVLDLAVVLFETATLRSGYLLPDTKAYGDRIERMLRLSLNIDPDAKVEEEPEEEPEETAEDTTEDTEQDEDEEMDVGTDEEEETAKESTAEYPYDVPDYA
Turning to B3, in assay [2], the binding result was “no binding”.

B4: Secretable ~20 kDa HA-tagged protein containing the CBD and C-terminal domains of GRP94 (CBD-CT; SEQ ID NO 46) (other)
chain: YGWSGNMERIMKAQAYQTGKDISTNYYASQKKTFEINPRHPLIRDMLRRIKEDEDDKTVLDLAVVLFETATLRSGYLLPDTKAYGDRIERMLRLSLNIDPDAKVEEEPEEEPEETAEDTTEDTEQDEDEEMDVGTDEEEETAKESTAEYPYDVPDYA
B4: in assay [2], the binding result is given as “binds”.
